Experiment [1] deals with MBP-Vpu fusion protein spin-labeled at residue Q36C (HIV-1). As to the kind of experiment: DEER.
For experiment [2] the target is unchanged. The experiment can be described thus: DEER. The source holds these as a separate data set.
Experiment [3] shares this target. The experiment can be described thus: DEER. The source holds these as a separate data set.
For experiment [4], the target named is MBP-Vpu fusion protein (His8-MBP-linker-full-length HIV-1 Vpu, Q36C) (HIV-1). The experiment can be described thus: SEC. A general note: Size exclusion chromatography separates by hydrodynamic size, large species first.
For experiment [5] the target is unchanged. The experiment can be described thus: SEC. This is another data set of the same source.

Read-outs that look alike come from different tables or passages of the source. Bounds are passed on as bounds.

As for “MBP-Vpu fusion protein spin-labeled at residue Q36C”, the DEER modulation depth in experiment [1] was found to be 0.56; in experiment [3] it was 0.24. Also, the stoichiometry N (commonly a count of units in the complex or per binding partner) is 5 in experiment [2] and greater than 3 in experiment [3].

As for “MBP-Vpu fusion protein (His8-MBP-linker-full-length HIV-1 Vpu, Q36C)”, the stoichiometry N in experiment [4] and in experiment [5] was 5 throughout.
